Eight molecules from paper PMC8406304, “Inhibiting Type VI Secretion System Activity with a Biomimetic Peptide Designed To Target the Baseplate Wedge Complex” (mBio, 2021) can be followed below.

Assay [1] addresses TssF-Strep (EAEC) (enteroaggregative Escherichia coli (EAEC) 17-2). Put plainly: pull-down; soluble extracts of E. coli BL21(DE3) producing the TssKFGE wedge complex with TssG wild type or foot variants; TssF-Strep used to pull down TssG by affinity purification; level of copurified TssG quantified.
The test system of assay [2] is TssK-TssFGE (TssKFGE wedge complex). The experiment in a line: Biolayer interferometry (BLI), TssFGE binding to biotinylated TssK. The class given is biochemical, enteroaggregative Escherichia coli (EAEC). As to conditions: BLI, 47 μM TssFGE lysate, TssK preincubated with 1 mM peptide, kinetic buffer pH 7.3; mean ± SD of three independent assays. The procedure: Streptavidin-tagged TssK was purified as described above. The TssK trimer was further polished by size exclusion chromatography using a Superose 6 10/300 GL (GE Healthcare) in 50 mM HEPES (pH 7.0), 150 mM NaCl at 0.25 ml/min. For biolayer interferometry (BLI) experiments, we used high-precision Strep (SAX) biosensors from Forté Bio (number 18-5117) on the BLItz machine (Forté Bio). The trimeric ligand TssK was biotinylated using equimolar N-hydroxysuccinimide (NHS)–polyethylene glycol 4 (PEG4)–biotin (Pierce EZ-Link; 21330) in 50 mM HEPES (pH 7.0), NaCl 150 mM for 1 h at room temperature before buffer exchange in CentriPure P2 (Generon; IRL) columns against 50 mM HEPES (pH 7.0), NaCl 150 mM to remove the excess biotin. BL21(DE3) cells were used to express the interacting analytes TssG-TssF-TssE. In addition, cells containing an empty plasmid were used as a control. Cells were broken as described above, and the clarified supernatants after centrifugation for 30 min at 20,000 × g contained the control and TssFGE lysate. Streptavidin biosensors were hydrated for 10 min in HEPES buffer before binding of the biotinylated TssK. Biotinylated TssK was loaded at 1.2 μM onto the SAX biosensors for 120 s, and then the excess TssK was dissociated in HEPES buffer for 120 s. For the remaining kinetic assays, we used kinetic buffer (PBS [pH 7.3] plus 0.02% Tween 20, 0.1% bovine serum albumin [BSA], 0.05% sodium azide) (Forté Bio number 18-5032) with orbital shaking at 2,200 rpm. Kinetic buffer (KB) was used to dilute the lysates and the peptide to decrease nonspecific signals. The unbound Strep sites were blocked with 2 μM control lysate for 120 s and washed with KB for 120 s. The kinetic assays were performed using three steps with different times: baseline, 30 s; association, 120 s; and dissociation, 120 s. All the following assays were performed in triplicate. […] In the first assay, we added 47 μM lysate expressing the analytes TssG, TssF, and TssE to the bound TssK. In the second assay, we added 1 mM wild-type (WT) BCP to the bound TssK before adding 47 μM TssF-TssG-TssE. In the third assay, to validate the specificity of the WT BCP we added 1 mM mutant BCP that lacks the binding residues to the bound TssK before adding 47 μM TssF-TssG-TssE. Last, to redemonstrate the specificity of the BCP-WT, we added 1 mM randomized BCP that contains the binding residues but out of order to the bound TssK before adding 47 μM TssF-TssG-TssE.
(In general: BLI is a label-free optical method that tracks binding on a fibre tip over time.)

In assay [3] the target is Strep-tagged TssK (EAEC) (enteroaggregative Escherichia coli (EAEC) 17-2). Put plainly: BLI; as a7, but 1 mM mutated BCP added to the bound TssK before 47 μM TssFGE lysate.
For assay [4] the target is unchanged. The experiment in a line: BLI; as a7, but 1 mM wild-type BCP added to the bound TssK before 47 μM TssFGE lysate.
Assay [5] has the same target. The experiment in a line: BLI; as a7, but 1 mM randomized BCP added to the bound TssK before 47 μM TssFGE lysate.
The target is the same in assay [6]. Put plainly: BLI; biotinylated TssK loaded at 1.2 μM on streptavidin (SAX) biosensors, blocked with control lysate; 47 μM TssFGE lysate in kinetic buffer (PBS pH 7.3, 0.02% Tween 20, 0.1% BSA); no peptide.
Assay [7] addresses TssK-6×His (EAEC) (enteroaggregative Escherichia coli (EAEC) 17-2). The experiment in a line: native gel or EMSA; clarified BL21(DE3) lysates on a native 4 to 16% gel, immunoblot with anti-His antibodies. For orientation: Mobility shift assays separate free from complexed probe on a gel.
The target in assay [8] is Strep-tagged TssK (EAEC) (enteroaggregative Escherichia coli (EAEC) 17-2). Put plainly: ITC; 25 μM TssK in the cell, 1 mM peptide in the syringe; 50 mM HEPES pH 7.0, 150 mM NaCl, 25°C; One Set of Sites model.

For the molecule “Flag-tagged TssG (EAEC) (natural protein)”, the amount of TssG copurified using TssF-based pulldown in assay [1] was determined as 74.8%. Consider “Flag-tagged TssG with the foot 1 domain deleted (natural protein)”, for which the amount of TssG copurified using TssF-based pulldown in assay [1] was found to be 4.6%. Regarding “Flag-tagged TssG with the foot 2 domain deleted (natural protein)”, the amount of TssG copurified using TssF-based pulldown in assay [1] turned out to be 1.1%. With “SRPVAG-SRPVAG-SRPVAG (head to tail) [mutated BCP]”, the “maximum binding average response of TssFGE to TssK at 150 s in presence of peptide” value in assay [2] stood at 0.169 ± 0.016 nm. Take “SVRMPG-SPMRVG-SMVRPG (head to tail) [randomized BCP, randomized control version (SVRMPG-SPMRVG-SMVRPG)]”: the “maximum binding average response of TssFGE to TssK at 150 s in presence of peptide” value in assay [2] is 0.160 ± 0.028 nm. Turning to TssF-TssG-TssE (EAEC) (complex), in assay [3], the maximum binding average response at 150 s, TssK preincubated with 1 mM mutated BCP stood at 0.169 nm. Besides, the maximum binding average response at 150 s, TssK preincubated with 1 mM wild-type BCP in assay [4] turned out to be 0.121 nm. Also, the maximum binding average response at 150 s, TssK preincubated with 1 mM randomized BCP in assay [5] amounted to 0.16 nm. This molecule also displayed a maximum binding average response at 150 s association in assay [6] of 0.189 nm. For the molecule TssK-6×His (EAEC) (natural protein), the stoichiometry N in assay [7] worked out at 3.

The molecule SRPVMGSRPVMGSRPVMG (head-to-tail cyclization) [biomimetic cyclic peptide (BCP)] yielded a Kd in assay [8] of 60 µM. This lies in the double-digit micromolar range.

Broadly, the stoichiometry N is a count of units in the complex or per binding partner. Broadly, the Kd is the constant that tells how readily two partners part at equilibrium.
